# Assay results as given in the DeepSol protein solubility set.
# Assay: soluble on expression in E. coli; label from the status in PepcDB or PDB records
row,Sequence,soluble on expression in E. coli
1,MAHHHHHHMSGGDIWVRRAPIGHPREMTVSTSVNNGPGPQGRHLFAELPINAGGGEVVLGECGTSGPSRSCNAMFSFKPPRHEPLWQPTRLTSPYCVLSANGVQDDFYTSCLSWGKGNIALALRDEVLLFQPSRPLVRLAVLNVQERPRSIISRVTSVAVSRFSDSSCFMGELDGSVGVYASRGDGRLSQTSVFSKPPPPLENTPLAGEAAMTATASVRCLATTDVHPWLVAAGTAAQGLFIFDSRCEKPSAQMVECDTFIALDSKRARKPLSPEDCLSLLSSAEGICGVSWNASGSLVATGGSGGVVNIWSLSQTRAPVQQIKLPNAHTTVKAIAFNPTLPYELAVGGGTNDGMLRLYDVSSSVSYLAWCVSTGCQVTQALYSPDGAFIISAQGLRHDKFTADGRAHSTALRMPNSNGAGVDVHRDSMDALERLTEEFERGMTRNGRTQEELQEPAPSHSGTAMNWAGDTPRTDDSPAFSLVMWRRGTQHRHSVPLGFSNTKPRDRPRSQYIQETERTPLPLFSMYMMTGHRSRPLHLASPFSSTADRGSVASFAGGVDNTIRFWKCFCPRSEAVNWEHRTRASMRAAVTEEDVEGMMAMPLR,not soluble
2,MAHHHHHHMSGILTNLNIESGYFNEDIKEESNESNFMYANISMLIRAYKKDRNKLILLNKKLNLIKIVGLVLNIEEKKEFIIYTIDDTTGCIKAKLLLTYSLNSYNEKKDNIKINDLIQIFGICNTVSLNEDLTISISSINKLDSFNYLCHHHLLVFHDYLKYQEEERRNPIEDKSRNDEDDLESTQNNENAYFNTFFY,not soluble
3,MAHHHHHHMSGVNAWGRMHTPAKQSQFTLDMFEEWKAKQNEDIAQRGADRDPAVEEEHNRYMLRQNLNAYVCYKELDRYTTCLEDKRLIRRRDDEDGARGGGTGVSLASSFEINTRNKVNEKLCRATHNTYVSCMSSQKNQEVVLQSASLEPHCTERRAKLFRCLRENQVSEAQTNTPQCTDTYRSLLRCGLNHLWNHYWREITKFSDTDEFHLYELSRDDNKKQAYLRALTTSEAQRQSHLREARDTMLGYYLDPKAAQKGDS,not soluble
4,MAHHHHHHMSLCHTASRWRSVQCTGDIPPGRIGHTLCANGTETKIFLYGGVNDRNESISNYLDDLYVFDVNKKHWSKIEMTGQVQCSRAFHSAVYYEGKIYIFGGCNGRGRFNKLFSTSEEGLCAQIEASGQPPSTRYCHSAVLFERCMYIFAGKCGGRNSNRRLSDLYLFDFQTNTWMECPQHGDPPTPRSAHAAFTCGRNMIMFGGRSAQGECCEDMYMYNYDTCMWRPIESPNSGPLFGRARNSVVVHHGKVVVFGGWNGKKKLNDLFTYHVDSNTFEVMHEPDENCPSRRECHVAVVCKNTMVVFGGRFRGEFMSDTAELDLGPKTLKQNCRDWILRSSFKELHSNRGERLPLRLQQFIESWRQLICRVEKIEPRTPLQDSAPNEALSSDSNSQHG,not soluble
5,MAHHHHHHMSLHKEICNYIVKFSSKPVQRLGYEPPKKKRSILRELYHKLIFPYYFKFIRAPYERWQFCATTKFLREHGLMYDDMYSDKDPVIERAISLLPKDIQTRRYRRMLRGTHINYLRLFLHPSEQNYDPYIPYLAPYIEEAKFQLQEEEELLGYHPYDRRLYSGGTTGFGDLEPGLHFLVSIPNLYGAAIPHSKKK,soluble
6,MAHHHHHHMSQQQWTPDQRRQQIAEMLRNKGVICRDFLFTGRCSRSPTCPYMHVANGETRPVPWSVCTFFTQGKCLRDGCSFFHGTQAQLEELHASGAPVYRPQDYMKIAVPPAEYLNADGSIATHLSIAAVPMTPALHVVHGPTVSHENAVNSFQPVLVMQPNSQAIAPTMFASQGRTAHSTPSHFAFYANAPITSQMPTHSAATVLQPTLHTVQPTTFYQAANALLAQPQQHFAPVPQLNTPQQHQLTQQALGSRVYFHIQPH,not soluble
7,MAHHHHHHMSSATPPLPADSVTASAALRFSVDFDPSRADSKPSVLLLTQNVGGIEAALGTDAGLGETSPECPHSPLPENGGDTSAAFASVPKDFRGPSYIHVPDDIDSELGVSPVVRQQVAEFLADLRQWLHRLSYMSAAVRAAEASATASSAAPASVAGGAPSPPPSPTPCGAAANTEAYMRSYTPSVRPPLIDMVVLHFQEIGGKYKNKHFNEYFKEQIRTSLLPEAGWTSGLLMDERESGDTLSSSSYQRHRATSTVQALRRTSFEGSSTSNNNGNANGHVGDAHRLSDANSNDTDLTAELDADADAYFTAIGSIVFLSPRFMGIASCLSVPHRTYIPIVDDPLTYAGEAGRLFHSGKFAEAGRSRKGFLLLSLRLGTVQFNVCNVHLFNDDDNRVALKSSPSLYTGRRTRAITEAIAECSAVVDLSEPLFIFGDYNVRMDGKSFTEWVEEKMQMTVRAERKRLRCPEQFWELFTNPATQQELRTRFDIEPQHLMDEVALLSSVELAEMPIQFAPTYSRVAYRTRTGATTTSAGADAAALRDVAATPDAQQQIPTLKDLAGRADAIRAEEQEQTEAIRARPSVSTLLAPLASPLASVPLTHVAASPYRDNFCHDRLPAWCDRVMFNVAGLEWISGDRSRTAPPQPQAASSVSGSAASGAGGLKGRQRSGQGCWYAYAAIDFIHMDHDGVFMLF,not soluble
8,MAHHHHHHMSSDTMPFKLVEPFVLFHTIFSDDFQHPQVAMITQACGSHSTASNQSTSHFLQIFFDFPLHVEPNEAPTDLIFLCKWGTSHSSHTPPHGNDVNVTRTNFLFRQCSQKKSATDY,not soluble
9,MAHHHHHHMSTNINEEKCLEGDDIKYEKPDTHKNFWKSFGLNNEAGKLLYHLYGESNKIKPNILSSKHDGDKNKNDKKKEDAKLNTTYRKPQIHYPSLKKKAVKENPIDTIKHRKPLSKILEETQNYDCIKDIPISIGMNRETEKNKLHNIFVEEKCLMVPPSCAPMILTQEEKKEIIEKAQQRYIYINEENKSREEKHIQALRNYKLELIQELNEKRKLLQDIINEDKNIQGNISINQSDKRVSNKGNSYNIIQIKNDIEQCQKSIKKIEDNLNTYE,not soluble
10,MAHHHHHHMSVGKPITRDSSKQLWRHIKSSGEEELTYTHNPYDDSPNRRKEREKSLNVCRHYAEGRCNRGSTCRFHHETRHNIIVTPHVTPKFSSIAPLKGLPTSPLGAYLSSPPNRSCNGCLLSPTHHNNSMSYNSSTNSSMKILSESSSTIPHLQLPESLSTHCRSSTYVASGMNGEQPPHDVLILSSSLGSLNVGDHVSRNNGGFLLTAQQR,not soluble
11,MAHHHHHHMSVRERAVVLVDGPAVVHRWYHRWSYTSKHTPVDVKRFTITNARHIIATAHSFDPSHLAQHLLSPQVEYAHTPKHNKIIVCFDQGDGGRRELYPAYKENRAEREHAAELSVIKKVAIKVFTGEPKNTLIVLPDLDAKLKDVDAEADDIIATLALHNQQLKIPTVVMSHDYDLYQLIDEANKCYHYDIRTKHLVSEKGVIERVGVHPKLVRDYKSLAGDSSDNIPGVKGIGKTRALQLLKKYGDLEGVLTKGKKKQGGHLGDLLRAGAADAELSRKLVELRSCPKVLKACEAFMKL,soluble
12,MAHHHHHHMSYSFVVVPPPVPAATPAFEAHVSTLLRHVPHPTFITCTSYSPYFTSAAAESLAAAADTADESANAMEASVTQQALSYLHQCVAADVGLVLTVTATRATSHAESVQSTQGGDQDSQQHPKQHTSSSSASMVPTTTTLTGASRGGTAAILADFIGRTSAAPATKLGTANSQEATRHRSRGLMVLRGDDGGYTRQCMIAAQKGGASASPPSLSPNPYVDFADGVDLLRFIHSTLRGRDGEAMCEITGDEPAGAAVCLCIGGYPQGHVLDRQWGADAATAAAVPSAQSPLPCQTLASLRFLDEVDTVFADTEAQLRRAQGTHSAPRPPSLESCVEAAEALFARLGAVRRLWTTPSYYPPSVRAACTRRTVANKVFLRPPGTRQCVADSAWDGCGSAGAHVVVTQVITSATEFFDYVEDIRNALRSSVPPARGVPCDRGRDGAAATEARGASVPCLQLRAASALPSSSPSLVIVPGLMAPLRAEQFLRSALQLKVIPSVPFQRALREYEGALHSAVETLRSAVSSNAIDVYAEAKERAEACFQEWMVAITVDIVRDLRARGYTHVNFSAFQYGCGDAVGCVVAALAAEGREEVVEEP,not soluble
13,MAHHHHHHMTDVDQWKCASFKQEEDHSEATDALLERINATAIPVLLRSTNSSLDDLVNELLALEKMARLGGDALSAKRLVVEILRIYRVHGDHEKMLDTLETLMRKRGQTKQSQGAMIAECGVLLTEGNLSREQRRIVLERVVHLTDSRIHVELEHVRFAIDLAKLMEDDGEKRAACDLLSGLHVETVTNMPRVEKLDALNRLIRLCLELEDYELARLVSRRINHRALSRPGALQAKLKYFELMREYFAQRRSYFHVARCWYETFLSETDETACVSALSSMAVHYLIAEHSSPKELEDHAECAAFSPATKFADRTAAIQGITTTLRKRLEENPQLQYLLEKFTSIELIRERVADDVEALCINHPQLAGFPERQALLRSRCSEHDLLVISRFYRRLRLVRLAELVGLTPQHTEEFLMMMVASRTLYAKIDRVDGLVVFEANKNANDVVTAWDEAVGRSVALLDKVSHLIVKERMLHNITLAQLQQSGATAS,not soluble
14,MAHHHHHHMTGSTHNGGSRLIQYEDSSNKEFIRKYLVETRNEFIEKQMRALYECREIYKDDIDEVINILTYALENNDSVLLRHEVAYVIGQISNEKCNDILIKLLNDTEENLMVRHEAAEGLAAIGSDSNIEVIKKFLNDEKVEVRETCELALSSLLEKNKYAVCSCSNKDSIKEAIKKKRNDEFVSKKFNTIDPVVFTSSGNAKSVDALIEDLNNEAVPLKLRYEALFKLRDMETDVSINALGEVLIKDKKSAIFRHEVAFVLGQALHLNSLKYLISSLQNVGEHEMVRHEVALALGSLGSLNINSQEYKNVQSEIISTLKTFSKDACRVVAESCLVGLDYIAENLNMAIEVN,not soluble
15,MAHHHHHHMTQSTIPLQSNIKISDRLEENSIDFCRFVGPFNRADEYAFTAPPWCQREGSENVPGSSLSTSVSAVFVLVSSPPNCGLVARFFCTKLLHYLLWCYKDAAFFLAGPSPRDFNVYRHEDDAAAWRKCMETCLAKSLEHVESARKRGTLTEPVVIVLADCESQAAYDTVHKMLGSMENLFVRHIWFGDSWRESNPVDCSYINVCLRQPAYRLTKCRGSSTCAKITSYLNSCLPTLHHIHLHEPLSGSPEETLRSGCPLFFTRHGQSEYNLEDRLGGDPDITPLGVDDALTLAEFFRDQVVRNPRLFATRDSIWDETEGFEVWCSQLKRTRHTAQPSADVLTNGNLKAFKMLNEIHAGVCEDMTANEVKEQYPSIQFFRHTDKAGFRYPNGESYHDLKRRLVPILYDLNATRKGILVVAHQAVLRAILSFFGGPPVEEAVHKPCAHRAVWCCTYNRLGEPRLSTITLRPRLQSSTEASTSVG,not soluble
16,MAHHHHHHMTSPMLMAAENFCFTPQSHFMVKTPKSERAHQCSKLYNEAFVVSNRTGLRSILRANESGRSYLNGGGIIARVWALEEALKAFFNLRKKKFVWGCDQSMWALLLIWSITRPENIKPALLVRRGLISLDYETRYFLYPSKTMVMSGMILHFAGPVHVWKRTLPQYLSEINWYRALSNSSPKREASIRLLKNSTVEMYTFWGSRKDAKLSTVCPISNISDPSWLSGQLKK,soluble
17,MAHHHHHHMTSVIQRLRRIEVEGLENLRNLGGYHTNNSTKTTRWGVVYRSDQLFRVPADVAQMVLVDQLHIRHVYDLRANTEVSAKRYSLPHMQYTSLPIEMSNANRFLKEGENLKQVATAHRFMQEIYREFVRSYAPTMGLIIKGIIDSKASCDNAFLIHCTAGKDRTGWCCYVLLTLLDVMEEEKRSDYLLTNTFVGIPADAWDYDGAEGMGEEAMTALWTVFDEYLDAALDELNKMGGIYKYAKSHMGLTDEDIDELRELMLE,soluble
